For the assay, the target named is murine αVβ3/5 integrin on the murine melanoma cell line B16-F10 (murine) (UniProt P43406). The assay is described as follows: cell-based or functional assay. Set-up: IC50 of doxorubicin, cell viability, murine melanoma B16-F10, integrin targeted liposome-entrapped dox 90:1: unit not given beside the values.

A value given as a limit tells only on which side of the number the result lay.

murine αVβ3/5 integrin on the murine melanoma cell line B16-F10 (murine), sequence (P43406 31-1044): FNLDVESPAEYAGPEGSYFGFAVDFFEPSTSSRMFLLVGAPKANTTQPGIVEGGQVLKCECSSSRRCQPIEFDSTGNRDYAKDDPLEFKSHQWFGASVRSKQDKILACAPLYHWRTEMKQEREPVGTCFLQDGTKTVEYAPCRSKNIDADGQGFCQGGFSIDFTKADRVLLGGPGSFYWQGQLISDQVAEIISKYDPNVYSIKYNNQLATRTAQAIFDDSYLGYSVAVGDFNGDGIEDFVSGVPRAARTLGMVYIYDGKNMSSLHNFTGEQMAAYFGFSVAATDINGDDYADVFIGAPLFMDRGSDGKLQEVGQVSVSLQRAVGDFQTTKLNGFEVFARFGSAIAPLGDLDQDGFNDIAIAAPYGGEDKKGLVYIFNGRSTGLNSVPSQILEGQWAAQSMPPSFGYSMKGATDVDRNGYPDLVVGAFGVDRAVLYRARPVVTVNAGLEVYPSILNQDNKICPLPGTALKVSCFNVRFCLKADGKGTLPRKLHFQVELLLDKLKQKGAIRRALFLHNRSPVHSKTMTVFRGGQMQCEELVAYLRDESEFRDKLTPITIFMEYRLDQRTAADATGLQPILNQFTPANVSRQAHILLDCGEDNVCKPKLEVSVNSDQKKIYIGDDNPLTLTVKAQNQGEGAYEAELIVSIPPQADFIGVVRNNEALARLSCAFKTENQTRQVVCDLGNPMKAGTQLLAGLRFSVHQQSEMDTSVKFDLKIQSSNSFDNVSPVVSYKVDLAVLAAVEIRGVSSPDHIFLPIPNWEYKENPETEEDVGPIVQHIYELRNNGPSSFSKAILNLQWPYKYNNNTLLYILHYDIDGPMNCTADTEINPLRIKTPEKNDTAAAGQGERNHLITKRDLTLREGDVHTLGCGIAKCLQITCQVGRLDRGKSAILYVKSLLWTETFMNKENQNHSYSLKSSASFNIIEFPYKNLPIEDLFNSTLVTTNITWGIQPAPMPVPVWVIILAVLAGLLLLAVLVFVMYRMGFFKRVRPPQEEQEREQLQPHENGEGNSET

With “CNTO95 Fab′ (from pepsin cleavage, reduction and reoxidation) conjugated to PEG-DSPE on the surface of liposomes”, the IC50 of doxorubicin, cell viability, murine melanoma B16-F10, integrin targeted liposome-entrapped dox 90:1 was more than 200 and the Increase (ratio of IC50 of liposome-entrapped doxorubicin to IC50 of 90:1 integrin-targeted liposomes), murine melanoma B16-F10 turned out to be 1.

The values above are taken from patent publication US20090196913A1, “Anti-Alpha-V Immunoliposome Composition, Methods, and Uses” (priority 2007, published 2009).
